Test results reported in US20260242448A1.

Key:
[1] = target: S protein of the SARS-CoV-2 XBB.1.5 strain on pseudo-virus (SARS-CoV-2 XBB.1.5 strain); experiment: cell-based or functional assay
[2] = target: S protein of the SARS-CoV-2 BA.2.75 strain on pseudo-virus (SARS-CoV-2 BA.2.75 strain); experiment: cell-based or functional assay
[3] = target: S protein of the SARS-CoV-2 BA.4/5 strains on pseudo-virus (SARS-CoV-2 BA.4/5 strain); experiment: cell-based or functional assay
[4] = target: S protein of the SARS-CoV-2 BF.7 strain on pseudo-virus (SARS-CoV-2 BF.7 strain); experiment: cell-based or functional assay
[5] = target: S protein of the SARS-CoV-2 BA.1 strain on pseudo-virus (SARS-CoV-2 BA.1 strain); experiment: cell-based or functional assay
[6] = target: S protein of the SARS-CoV-2 Delta strain on pseudo-virus (SARS-CoV-2 Delta strain); experiment: cell-based or functional assay
[7] = target: S protein of the SARS-CoV-2 BQ.1.1 strain on pseudo-virus (SARS-CoV-2 BQ.1.1 strain); experiment: cell-based or functional assay
[8] = target: S protein of the SARS-CoV-2 XBB strain on pseudo-virus (SARS-CoV-2 XBB strain); experiment: cell-based or functional assay
[9] = target: S protein of the SARS-CoV-2 BQ.1 strain on pseudo-virus (SARS-CoV-2 BQ.1 strain); experiment: cell-based or functional assay
[10] = target: SARS-CoV-2 (BF.7) Spike RBD (SARS-CoV-2 BF.7 strain); experiment: ELISA on plate-coated RBD (1 µg/mL), HRP anti-human Fc detection, OD450
[11] = target: SARS-CoV-2 (BA.5) Spike RBD (SARS-CoV-2 BA.5 strain); experiment: SPR, Biacore 8K; antibody captured on Protein A chip, RBD as analyte
[12] = target: SARS-CoV-2 (BF.7) Spike RBD (SARS-CoV-2 BF.7 strain); experiment: as above

Chain of LY-CoV1404 (antibody) (VH): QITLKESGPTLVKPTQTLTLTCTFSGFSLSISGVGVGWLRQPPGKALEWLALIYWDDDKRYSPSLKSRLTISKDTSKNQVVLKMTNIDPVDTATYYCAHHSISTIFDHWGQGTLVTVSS
Chain of LY-CoV1404 (antibody) (VL): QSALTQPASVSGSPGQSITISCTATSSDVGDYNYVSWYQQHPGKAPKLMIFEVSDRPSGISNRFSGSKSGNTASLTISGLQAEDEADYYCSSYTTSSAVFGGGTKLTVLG

**Q.** What does the source list for LY-CoV1404 (antibody)?
**A.** Neutralization activity (IC50) against pseudo-virus [1]: > 2000 ng/mL; Neutralization activity (IC50) against pseudo-virus [2]: 25.1 ng/mL; Neutralization activity (IC50) against pseudo-virus [3]: 1.22 ng/mL; Neutralization activity (IC50) against pseudo-virus [4]: 2.14 ng/mL; Neutralization activity (IC50) against pseudo-virus [5]: 1.44 ng/mL; Neutralization activity (IC50) against pseudo-virus [6]: 3.05 ng/mL; Neutralization activity (IC50) against pseudo-virus [7]: > 2000 ng/mL; Neutralization activity (IC50) against pseudo-virus [8]: > 2000 ng/mL; Neutralization activity (IC50) against pseudo-virus [9]: > 2000 ng/mL; EC50 [10]: 0.111 nM; Kd [11]: 0.184 nM; koff [11]: 0.000264 s⁻¹; kon [11]: 1.44e+06 M⁻¹ s⁻¹; Kd [12]: 0.162 nM; koff [12]: 0.000148 s⁻¹; kon [12]: 910000 M⁻¹ s⁻¹
